Reference: article doi:10.1101/2024.06.18.599654 (bioRxiv, 2024)
“And” between values parts separate entries of the source, which are not always exact repeats. Identical values can stand only once.

Target: the molecule itself
Test: SEC

B1: PE11 (Rv1169c) esterase of Mycobacterium tuberculosis, recombinant His-tagged (enzyme)
chain: MSFVTTRPDSIGETAANLHEIGVTMSAHDDGVTPLITNVESPAHDLVSIVTSMLFSMHGELYKAIARQAHVIHESFVQTLQTSKTSYWLTELANRAGTST
For B1, the “stoichiometry N” value was 4 and 2.
